This passage reports Kd and Ka results from article PMC9398005, “A Drosophila Su(H) model of Adams-Oliver Syndrome reveals cofactor titration as a mechanism underlying developmental defects” (PLoS Genetics, 2021).

What all share (settings): both partners purified
The target in experiment [1] is T1, mouse Rbpj (53-474) K195E (mouse, UniProt P31266 53-474, K195E).
T1 construct: also called Rbpj K195E; K195E (analogous to human RBPJ K169E); source: E. coli BL21 Tuner, purified (ammonium sulfate, glutathione resin, PreScission cut, SP ion exchange)
In words: ITC; cofactor (RAM peptide, Hairless or SHARP) in the syringe, Su(H) or Rbpj in the cell; 50 mM sodium phosphate, 150 mM sodium chloride; 20 injections, triplicate, one site model; 25°C by the legend, 20°C by the methods. Background: Isothermal titration calorimetry measures the heat released or taken up as one component is titrated into another.

A further experiment addresses T2, mouse Rbpj (53-474) E89G (mouse, UniProt P31266 53-474, E89G).
T2 construct: also called Rbpj E89G; E89G (analogous to human RBPJ E63G); source: E. coli BL21 Tuner, purified (ammonium sulfate, glutathione resin, PreScission cut, SP ion exchange)
Described as above.

The target of a further experiment is T3, mouse Rbpj (53-474) WT (mouse, UniProt P31266 53-474).
T3 construct: also called WT Rbpj; WT RBPJ; source: E. coli BL21 Tuner, purified (ammonium sulfate, glutathione resin, PreScission cut, SP ion exchange)
The description is as above.

The target of experiment [2] is T4, mouse Rbpj K195E (53-474) (mouse, UniProt P31266 53-474, K195E).
T4 construct: also called analogous to human RBPJ K169E; source: E. coli BL21 Tuner, pGEX-6P1, purified (glutathione resin, PreScission cleavage, SP ion exchange)
In words: ITC; RAM peptide, Hairless or SHARP in the syringe, Su(H) or Rbpj in the cell; 50 mM sodium phosphate, 150 mM sodium chloride; 20 injections of 14 uL; triplicate; one site binding model; 20°C by the methods, 25°C by the legend of Fig 6.

For another experiment, the target named is T5, mouse Rbpj WT (53-474) (mouse, UniProt P31266 53-474).
T5 construct: also called CBF1; mouse CSL; source: E. coli BL21 Tuner, pGEX-6P1, purified (glutathione resin, PreScission cleavage, SP ion exchange)
The experiment is described as above.

The target of a further experiment is T6, mouse Rbpj E89G (53-474) (mouse, UniProt P31266 53-474, E89G).
T6 construct: also called analogous to human RBPJ E63G; source: E. coli BL21 Tuner, pGEX-6P1, purified (glutathione resin, PreScission cleavage, SP ion exchange)
The description is as above.

T4 sequence (P31266 53-474 K195E): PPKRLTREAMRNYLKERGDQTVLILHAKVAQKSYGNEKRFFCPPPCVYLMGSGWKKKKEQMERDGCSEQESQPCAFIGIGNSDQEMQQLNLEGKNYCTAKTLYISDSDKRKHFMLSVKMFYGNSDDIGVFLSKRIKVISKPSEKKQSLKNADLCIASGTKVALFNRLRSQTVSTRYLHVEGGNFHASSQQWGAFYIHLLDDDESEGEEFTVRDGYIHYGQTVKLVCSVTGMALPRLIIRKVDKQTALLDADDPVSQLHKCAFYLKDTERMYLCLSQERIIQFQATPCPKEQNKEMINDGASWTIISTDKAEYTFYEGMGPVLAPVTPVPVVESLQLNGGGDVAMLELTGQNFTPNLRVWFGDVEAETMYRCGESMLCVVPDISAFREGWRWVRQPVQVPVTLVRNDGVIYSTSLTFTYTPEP
T6 sequence (P31266 53-474 E89G): as the sequence (P31266 53-474 K195E) above, with E37G, E143K counted along it
T5 sequence (P31266 53-474): as the sequence (P31266 53-474 K195E) above, with E143K counted along it
T1 sequence (P31266 53-474 K195E): as the sequence (P31266 53-474 K195E) above
T2 sequence (P31266 53-474 E89G): as the sequence (P31266 53-474 K195E) above, with E37G, E143K counted along it
T3 sequence (P31266 53-474): as the sequence (P31266 53-474 K195E) above, with E143K counted along it

B1: Notch1 RAM peptide (human Notch1 residues 1754-1781) (peptide)
peptide: VLLSRKRRRQHGQLWFPEGFKVSEASKK
notes: Notch1 RAM domain; the methods give human Notch1 residues 1754-1781, the results and the legend call it the mouse RAM domain; Methods say human Notch1 residues, results say mouse; also called mouse Notch 1 RAM; mouse RAM domain from Notch1; source: synthetic peptide (Peptide2.0, 95% purity)
As for B1, the Kd (in experiment [1]; with mouse Rbpj (53-474) E89G; in the experiment with mouse Rbpj (53-474) WT) was about 20 nM throughout.

B2: SHARP residues 2776-2833 (domain or fragment, human, UniProt Q96T58 2776-2833, looked up)
chain: RASANENSRFHPGSMPVIDDRPADAGSGAGLRVNTSEGVVLLSYSGQKTEGPQRISAK
notes: called mouse SHARP in the results and the legend; also called mouse SHARP; mouse co-repressor SHARP; source: recombinant from pSMT3, purified as previously described
As for B2, the results for the Kd (in experiment [1]; with mouse Rbpj (53-474) E89G; in the experiment with mouse Rbpj (53-474) WT) were 21 nM, about 5 nM and about 5 nM, respectively.

B3: SHARP residues 2776-2833 (domain or fragment, human, UniProt Q96T58 2776-2833, looked up)
chain: B2 chain
notes: the methods say human SHARP, the results and legend say mouse SHARP; species told as human in the methods and as mouse in the results and legend; also called mouse SHARP; source: bacterial recombinant, pSMT3, purified as previously described
Turning to B3, the Ka in experiment [2] worked out at 5.8e+07 M⁻¹; in the experiment with mouse Rbpj WT (53-474) it was 1.5e+09 M⁻¹; in the experiment with mouse Rbpj E89G (53-474) it was 2.9e+08 M⁻¹. In addition, the Kd – broadly, the concentration at which binding is half-saturated – in experiment [2] is 21.1 nM; with mouse Rbpj WT (53-474), 3.5 nM; with mouse Rbpj E89G (53-474), 5.2 nM.

B4: Notch1 RAM peptide (residues 1754-1781) (peptide)
peptide: VLLSRKRRRQHGQLWFPEGFKVSEASKK
notes: Notch1, RAM domain; also called mNotch1 RAM; mouse Notch 1 RAM; source: synthetic peptide (Peptide2.0, 95% purity)
As to B4, the Ka in experiment [2] is 5.1e+07 M⁻¹; in the experiment with mouse Rbpj WT (53-474), 4.8e+07 M⁻¹; with mouse Rbpj E89G (53-474) it was 5.6e+07 M⁻¹. Besides, the Kd came to 22.4 nM in experiment [2], 20.8 nM with mouse Rbpj WT (53-474) and 19.9 nM in the experiment with mouse Rbpj E89G (53-474).
